The chains are these.
B1: KB001 mouse Fab FASEBA VH S30E (Fab, V domains shown)
VH: EVQLKQSGPGLVAPSQSLSITCTVSGFSLEIYSVHWVRQPPGKGLEWLGMIWGGGSSDYNSALKSRLSISKDNSKSQVFLKMNSLQTDDTAMYYCARNGNFYAMDYWGQGTSVTVSS
VL: QIVLTQSPAIMSASLGERVTMTCTASSSVSSSFLHWYQQKPGSSPQLWIYSTSNLASGVPARFSGSGSGTSYSLTISSMEAEDAATYYCHQYHHSPYIYTFGGGTKLEIK
B2: KB001 mouse Fab FASEBA VH S30N (Fab, V domains shown)
VH: EVQLKQSGPGLVAPSQSLSITCTVSGFSLNIYSVHWVRQPPGKGLEWLGMIWGGGSSDYNSALKSRLSISKDNSKSQVFLKMNSLQTDDTAMYYCARNGNFYAMDYWGQGTSVTVSS
VL: QIVLTQSPAIMSASLGERVTMTCTASSSVSSSFLHWYQQKPGSSPQLWIYSTSNLASGVPARFSGSGSGTSYSLTISSMEAEDAATYYCHQYHHSPYIYTFGGGTKLEIK
B3: KB001 mouse Fab VL S53V (Fab, V domains shown)
VH: EVQLKQSGPGLVAPSQSLSITCTVSGFSLSIYSVHWVRQPPGKGLEWLGMIWGGGSSDYNSALKSRLSISKDNSKSQVFLKMNSLQTDDTAMYYCARNGNFYAMDYWGQGTSVTVSS
VL: QIVLTQSPAIMSASLGERVTMTCTASSSVSSSFLHWYQQKPGSSPQLWIYSTVNLASGVPARFSGSGSGTSYSLTISSMEAEDAATYYCHQYHHSPYIYTFGGGTKLEIK
B4: KB001 mouse Fab VL N54D (Fab, V domains shown)
VH: EVQLKQSGPGLVAPSQSLSITCTVSGFSLSIYSVHWVRQPPGKGLEWLGMIWGGGSSDYNSALKSRLSISKDNSKSQVFLKMNSLQTDDTAMYYCARNGNFYAMDYWGQGTSVTVSS
VL: QIVLTQSPAIMSASLGERVTMTCTASSSVSSSFLHWYQQKPGSSPQLWIYSTSDLASGVPARFSGSGSGTSYSLTISSMEAEDAATYYCHQYHHSPYIYTFGGGTKLEIK
B5: KB001 mouse Fab VL L55K (Fab, V domains shown)
VH: EVQLKQSGPGLVAPSQSLSITCTVSGFSLSIYSVHWVRQPPGKGLEWLGMIWGGGSSDYNSALKSRLSISKDNSKSQVFLKMNSLQTDDTAMYYCARNGNFYAMDYWGQGTSVTVSS
VL: QIVLTQSPAIMSASLGERVTMTCTASSSVSSSFLHWYQQKPGSSPQLWIYSTSNKASGVPARFSGSGSGTSYSLTISSMEAEDAATYYCHQYHHSPYIYTFGGGTKLEIK
B6: KB001 mouse Fab VL L55V (Fab, V domains shown)
VH: EVQLKQSGPGLVAPSQSLSITCTVSGFSLSIYSVHWVRQPPGKGLEWLGMIWGGGSSDYNSALKSRLSISKDNSKSQVFLKMNSLQTDDTAMYYCARNGNFYAMDYWGQGTSVTVSS
VL: QIVLTQSPAIMSASLGERVTMTCTASSSVSSSFLHWYQQKPGSSPQLWIYSTSNVASGVPARFSGSGSGTSYSLTISSMEAEDAATYYCHQYHHSPYIYTFGGGTKLEIK
B7: KB001 mouse Fab VL N54A (Fab, V domains shown)
VH: EVQLKQSGPGLVAPSQSLSITCTVSGFSLSIYSVHWVRQPPGKGLEWLGMIWGGGSSDYNSALKSRLSISKDNSKSQVFLKMNSLQTDDTAMYYCARNGNFYAMDYWGQGTSVTVSS
VL: QIVLTQSPAIMSASLGERVTMTCTASSSVSSSFLHWYQQKPGSSPQLWIYSTSALASGVPARFSGSGSGTSYSLTISSMEAEDAATYYCHQYHHSPYIYTFGGGTKLEIK
B8: KB001 mouse Fab VL N54K (Fab, V domains shown)
VH: EVQLKQSGPGLVAPSQSLSITCTVSGFSLSIYSVHWVRQPPGKGLEWLGMIWGGGSSDYNSALKSRLSISKDNSKSQVFLKMNSLQTDDTAMYYCARNGNFYAMDYWGQGTSVTVSS
VL: QIVLTQSPAIMSASLGERVTMTCTASSSVSSSFLHWYQQKPGSSPQLWIYSTSKLASGVPARFSGSGSGTSYSLTISSMEAEDAATYYCHQYHHSPYIYTFGGGTKLEIK
B9: KB001 mouse Fab VL N54E (Fab, V domains shown)
VH: EVQLKQSGPGLVAPSQSLSITCTVSGFSLSIYSVHWVRQPPGKGLEWLGMIWGGGSSDYNSALKSRLSISKDNSKSQVFLKMNSLQTDDTAMYYCARNGNFYAMDYWGQGTSVTVSS
VL: QIVLTQSPAIMSASLGERVTMTCTASSSVSSSFLHWYQQKPGSSPQLWIYSTSELASGVPARFSGSGSGTSYSLTISSMEAEDAATYYCHQYHHSPYIYTFGGGTKLEIK
B10: KB001 mouse Fab VL T100D (Fab, V domains shown)
VH: EVQLKQSGPGLVAPSQSLSITCTVSGFSLSIYSVHWVRQPPGKGLEWLGMIWGGGSSDYNSALKSRLSISKDNSKSQVFLKMNSLQTDDTAMYYCARNGNFYAMDYWGQGTSVTVSS
VL: QIVLTQSPAIMSASLGERVTMTCTASSSVSSSFLHWYQQKPGSSPQLWIYSTSNLASGVPARFSGSGSGTSYSLTISSMEAEDAATYYCHQYHHSPYIYDFGGGTKLEIK
B11: KB001 mouse Fab VL L55S (Fab, V domains shown)
VH: EVQLKQSGPGLVAPSQSLSITCTVSGFSLSIYSVHWVRQPPGKGLEWLGMIWGGGSSDYNSALKSRLSISKDNSKSQVFLKMNSLQTDDTAMYYCARNGNFYAMDYWGQGTSVTVSS
VL: QIVLTQSPAIMSASLGERVTMTCTASSSVSSSFLHWYQQKPGSSPQLWIYSTSNSASGVPARFSGSGSGTSYSLTISSMEAEDAATYYCHQYHHSPYIYTFGGGTKLEIK
B12: KB001 mouse Fab VL N54W (Fab, V domains shown)
VH: EVQLKQSGPGLVAPSQSLSITCTVSGFSLSIYSVHWVRQPPGKGLEWLGMIWGGGSSDYNSALKSRLSISKDNSKSQVFLKMNSLQTDDTAMYYCARNGNFYAMDYWGQGTSVTVSS
VL: QIVLTQSPAIMSASLGERVTMTCTASSSVSSSFLHWYQQKPGSSPQLWIYSTSWLASGVPARFSGSGSGTSYSLTISSMEAEDAATYYCHQYHHSPYIYTFGGGTKLEIK
B13: KB001 mouse Fab VL L55T (Fab, V domains shown)
VH: EVQLKQSGPGLVAPSQSLSITCTVSGFSLSIYSVHWVRQPPGKGLEWLGMIWGGGSSDYNSALKSRLSISKDNSKSQVFLKMNSLQTDDTAMYYCARNGNFYAMDYWGQGTSVTVSS
VL: QIVLTQSPAIMSASLGERVTMTCTASSSVSSSFLHWYQQKPGSSPQLWIYSTSNTASGVPARFSGSGSGTSYSLTISSMEAEDAATYYCHQYHHSPYIYTFGGGTKLEIK
B14: KB001 mouse Fab VL L55H (Fab, V domains shown)
VH: EVQLKQSGPGLVAPSQSLSITCTVSGFSLSIYSVHWVRQPPGKGLEWLGMIWGGGSSDYNSALKSRLSISKDNSKSQVFLKMNSLQTDDTAMYYCARNGNFYAMDYWGQGTSVTVSS
VL: QIVLTQSPAIMSASLGERVTMTCTASSSVSSSFLHWYQQKPGSSPQLWIYSTSNHASGVPARFSGSGSGTSYSLTISSMEAEDAATYYCHQYHHSPYIYTFGGGTKLEIK
B15: KB001 mouse Fab VL L55Q (Fab, V domains shown)
VH: EVQLKQSGPGLVAPSQSLSITCTVSGFSLSIYSVHWVRQPPGKGLEWLGMIWGGGSSDYNSALKSRLSISKDNSKSQVFLKMNSLQTDDTAMYYCARNGNFYAMDYWGQGTSVTVSS
VL: QIVLTQSPAIMSASLGERVTMTCTASSSVSSSFLHWYQQKPGSSPQLWIYSTSNQASGVPARFSGSGSGTSYSLTISSMEAEDAATYYCHQYHHSPYIYTFGGGTKLEIK
B16: KB001 mouse Fab VL T100K (Fab, V domains shown)
VH: EVQLKQSGPGLVAPSQSLSITCTVSGFSLSIYSVHWVRQPPGKGLEWLGMIWGGGSSDYNSALKSRLSISKDNSKSQVFLKMNSLQTDDTAMYYCARNGNFYAMDYWGQGTSVTVSS
VL: QIVLTQSPAIMSASLGERVTMTCTASSSVSSSFLHWYQQKPGSSPQLWIYSTSNLASGVPARFSGSGSGTSYSLTISSMEAEDAATYYCHQYHHSPYIYKFGGGTKLEIK
B17: KB001 mouse Fab VL N54I (Fab, V domains shown)
VH: EVQLKQSGPGLVAPSQSLSITCTVSGFSLSIYSVHWVRQPPGKGLEWLGMIWGGGSSDYNSALKSRLSISKDNSKSQVFLKMNSLQTDDTAMYYCARNGNFYAMDYWGQGTSVTVSS
VL: QIVLTQSPAIMSASLGERVTMTCTASSSVSSSFLHWYQQKPGSSPQLWIYSTSILASGVPARFSGSGSGTSYSLTISSMEAEDAATYYCHQYHHSPYIYTFGGGTKLEIK
B18: KB001 mouse Fab VL N54F (Fab, V domains shown)
VH: EVQLKQSGPGLVAPSQSLSITCTVSGFSLSIYSVHWVRQPPGKGLEWLGMIWGGGSSDYNSALKSRLSISKDNSKSQVFLKMNSLQTDDTAMYYCARNGNFYAMDYWGQGTSVTVSS
VL: QIVLTQSPAIMSASLGERVTMTCTASSSVSSSFLHWYQQKPGSSPQLWIYSTSFLASGVPARFSGSGSGTSYSLTISSMEAEDAATYYCHQYHHSPYIYTFGGGTKLEIK
B19: KB001 mouse Fab VL N54L (Fab, V domains shown)
VH: EVQLKQSGPGLVAPSQSLSITCTVSGFSLSIYSVHWVRQPPGKGLEWLGMIWGGGSSDYNSALKSRLSISKDNSKSQVFLKMNSLQTDDTAMYYCARNGNFYAMDYWGQGTSVTVSS
VL: QIVLTQSPAIMSASLGERVTMTCTASSSVSSSFLHWYQQKPGSSPQLWIYSTSLLASGVPARFSGSGSGTSYSLTISSMEAEDAATYYCHQYHHSPYIYTFGGGTKLEIK

“And” between values parts separate entries of the source, which are not always exact repeats. Equal values may be shown once.

One test addresses HRgpA-6H (Porphyromonas gingivalis) (UniProt P28784). Nature of the test: ELISA on coated HRgpA-6H.
For B1, the OD450nm was determined as 0.567 and the Ratio OD(Variant)/OD(WT) worked out at 1.12.

Consider B2, for which the OD450nm is 0.565 and 0.56; the Ratio OD(Variant)/OD(WT) was 1.12 and 1.11.

For a further test the target is unchanged. Nature of the test: ELISA, FASEBA Fab on coated HRgpA-6H. For orientation: In an ELISA, binding on a coated surface is turned into a signal by an enzyme label.
B3: the OD450nm was determined as 0.702 and the Ratio OD(Variant)/OD(WT) was determined as 0.891.

For B4, the OD450nm was determined as 0.725 and the Ratio OD(Variant)/OD(WT) was 0.925.

For the molecule B5, the OD450nm was 0.769 and the Ratio OD(Variant)/OD(WT) was found to be 0.981.

For B6, the OD450nm was 0.706 and the Ratio OD(Variant)/OD(WT) amounted to 0.901.

B7: the OD450nm stood at 0.776 and the Ratio OD(Variant)/OD(WT) was found to be 0.99.

Turning to B8, the OD450nm worked out at 0.727 and the Ratio OD(Variant)/OD(WT) worked out at 0.928.

Turning to B9, the OD450nm was 0.744 and 0.74; the Ratio OD(Variant)/OD(WT) was 0.95 and 0.944.

With B10, the OD450nm worked out at 0.645 and the Ratio OD(Variant)/OD(WT) was determined as 1.23.

For the molecule B11, the OD450nm came to 0.672 and the Ratio OD(Variant)/OD(WT) came out at 0.858.

Turning to B12, the OD450nm was 0.646 and the Ratio OD(Variant)/OD(WT) came out at 0.825.

On to B13, for which the OD450nm stood at 0.727 and the Ratio OD(Variant)/OD(WT) came to 0.928.

As to B14, the OD450nm was 0.695 and 0.731; the Ratio OD(Variant)/OD(WT) was 0.887 and 0.933.

Take B15: the OD450nm is 0.711 and 0.692 and 0.684; the Ratio OD(Variant)/OD(WT) was 0.907 and 0.883 and 0.873.

In the case of B16, the OD450nm amounted to 0.625 and the Ratio OD(Variant)/OD(WT) came out at 1.19.

Consider B17, for which the OD450nm was 0.755 and 0.772 and 0.754; the Ratio OD(Variant)/OD(WT) was 0.964 and 0.985 and 0.962.

For B18, the OD450nm was found to be 0.765 and the Ratio OD(Variant)/OD(WT) turned out to be 0.976.

For the molecule B19, the OD450nm came to 0.774 and the Ratio OD(Variant)/OD(WT) is 0.988.

Source of the values: US20230365662A1.
